This assay deals with T1, mouse ICOSL (mouse, UniProt Q9JHJ8 47-279, limits assumed).
T1 construct: Target of ELSS1 panning; also called mICOSL
T1 sequence (looked up): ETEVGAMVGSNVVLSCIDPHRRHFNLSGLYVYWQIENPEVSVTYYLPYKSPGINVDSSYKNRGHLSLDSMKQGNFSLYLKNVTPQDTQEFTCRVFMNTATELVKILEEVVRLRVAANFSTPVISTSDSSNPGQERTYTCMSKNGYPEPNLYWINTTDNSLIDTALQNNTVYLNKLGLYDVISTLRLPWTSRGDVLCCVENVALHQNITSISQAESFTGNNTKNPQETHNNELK
Put plainly: lead clones against targets used to screen ELSS1; alignment legend.

The record followed here is patent publication US20200002403A1 (UNIVERSITY COURT OF THE UNIVERSITY OF ABERDEEN, published 2020).

Residue numbers refer to the chain shown, from its start.

B1: SEQ ID NO 44 (VNAR)
VNAR: TRVDQTPRTATKETGESLTINCVLTDTSYGWFSTSWFRKNPGTTDWERMSIGGRYVESVNKGAKSFSLRIKDLTVADSATYICRAQAAIPDFPRYVYGAGTVLTVN
notes: VNAR
Consider B1, for which the binding result is “binds”.

B2: SEQ ID NO 42 (VNAR)
VNAR: TRVDQTPRTATKETGESLTINCVLTDTEYGLFSTSWFRKNPGTTDWERMSIGGRYVESVNKGAKSFSLRIKDLTVADSATYYCKALGWWPPAFPHWYDGAGTVLTVN
notes: VNAR
As to B2, the binding result is listed as “binds”.

B3: SEQ ID NO 45 (VNAR)
VNAR: B2 VNAR with E28G, W89I, A92E
notes: VNAR
In the case of B3, the binding result is listed as “binds”.

B4: SEQ ID NO 41 (VNAR)
VNAR: ASVNQTPRTATKETGESLTINCVLTDTGYGWFATSWFRKNPGTTDWERMSIGGRYVESVNKGAKSFSLRIKDLTVADSATYICRADMWPKNTKYSPDVYGAGTVLTVN
notes: VNAR
In the case of B4, the binding result is recorded as “binds”.

B5: SEQ ID NO 43 (VNAR)
VNAR: TRVDQTPRTATKETGESLTINCVLTDTRYALYSTSWFRKNPGTTDWERMSIGGRYVESVNKGAKSFSLRIKDLTVADSATYICRANEMMPPMDVYGAGTVLTVN
notes: VNAR
B5: the binding result is on record as “binds”.
